Experimental data published in patent US20250250330A1 (REVOPSIS THERAPEUTICS, published 2025).
Values joined by “and” are separate entries in the source; they are usually repeats but may differ in a detail not shown here. Equal values may be shown once.

Legend:
[1] = target: T1, rdVEGF163 (canine/dog; R&D 1603-CV-010/CF) (Canine/Dog, UniProt Q9MYV3-3 27-190, limits assumed); assay: ELISA on coated dog VEGF-A
T1 construct: Bought protein; also called Dog VEGF-A
T1 sequence (looked up): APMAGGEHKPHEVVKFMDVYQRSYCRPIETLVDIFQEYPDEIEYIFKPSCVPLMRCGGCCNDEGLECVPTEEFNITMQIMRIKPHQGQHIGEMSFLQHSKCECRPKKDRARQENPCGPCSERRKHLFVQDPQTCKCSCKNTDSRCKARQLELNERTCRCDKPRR

[2] = target: T2, His-tagged recombinant human ANG-2 (AcroBiosystems, Cat #AN2-H52H4) (human, UniProt O15123 275-496); assay: ELISA on coated human ANG-2
T2 construct: also called rhANG-2; rhANG-2-His; not shown: His tag
T2 sequence (looked up): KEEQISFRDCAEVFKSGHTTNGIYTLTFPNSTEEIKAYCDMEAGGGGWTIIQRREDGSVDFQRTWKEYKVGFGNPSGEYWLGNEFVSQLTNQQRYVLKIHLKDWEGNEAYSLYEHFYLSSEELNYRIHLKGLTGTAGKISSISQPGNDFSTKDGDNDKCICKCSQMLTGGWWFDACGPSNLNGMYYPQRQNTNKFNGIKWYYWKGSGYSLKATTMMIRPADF

[3] = target: T3, rrVEGF165 (rabbit; Kingfisher Biotech_RP1025U-025) (Rabbit, UniProt P49151 27-190 (pig entry)); assay: ELISA on coated rabbit VEGF-A
T3 construct: Bought protein; also called Rabbit VEGF-A
T3 chain: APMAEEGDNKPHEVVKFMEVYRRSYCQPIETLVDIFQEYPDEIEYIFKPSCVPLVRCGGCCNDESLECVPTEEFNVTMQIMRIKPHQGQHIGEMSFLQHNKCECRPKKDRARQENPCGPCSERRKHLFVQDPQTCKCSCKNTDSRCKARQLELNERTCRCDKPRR

[4] = target: T4, Recombinant human ANG-2 (R&D Systems, Cat #623-AN-025/CF) (human, UniProt O15123 19-496, limits assumed); assay: ELISA on rhANG-2 by an independent team; average of three values
T4 construct: also called rhANG-2
T4 sequence (looked up): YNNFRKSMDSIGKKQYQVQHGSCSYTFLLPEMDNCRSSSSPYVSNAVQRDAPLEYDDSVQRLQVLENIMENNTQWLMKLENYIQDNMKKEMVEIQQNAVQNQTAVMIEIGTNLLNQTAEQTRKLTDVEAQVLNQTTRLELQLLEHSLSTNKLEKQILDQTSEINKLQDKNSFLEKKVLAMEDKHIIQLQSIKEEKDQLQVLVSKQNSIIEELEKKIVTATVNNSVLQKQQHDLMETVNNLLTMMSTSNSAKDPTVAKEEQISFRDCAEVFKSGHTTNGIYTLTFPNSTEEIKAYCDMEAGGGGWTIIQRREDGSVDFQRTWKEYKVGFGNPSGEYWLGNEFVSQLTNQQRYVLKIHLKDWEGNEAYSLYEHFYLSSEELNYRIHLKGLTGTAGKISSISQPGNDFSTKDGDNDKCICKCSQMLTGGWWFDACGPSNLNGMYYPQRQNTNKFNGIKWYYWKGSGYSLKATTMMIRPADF

[5] = target: T5, Recombinant human VEGF165 (Peprotech, Cat #100-20) (human, UniProt P15692-4 27-191); assay: ELISA; target coated at 1 ug/mL, anti-human IgG Fc-HRP detection
T5 construct: Bought protein; also called rhVEGF165; rh VEGF165
Description: Different target proteins were used to coat Corning 9017 medium binding plates at 1 μg/mL and 100 μl per well. Donkey anti-human IgG Fcγ-HRP was used for detection. OD450 nm readings were measured by Victor 3.

[6] = target: T2, His-tagged recombinant human ANG-2 …; assay: ELISA; rhANG-2 (AcroBiosystems) coated, anti-human IgG Fc-HRP detection
Description: Donkey anti-human IgG Fcγ-HRP (Jackson ImmunoResearch Laboratories, Cat #709-035-098) was used for detection and visualized by TMB substrate. OD450 nm readings were measured by Victor 3 with PerkinElmer 1420 Multilabel Counter.

[7] = target: T5, Recombinant human VEGF165 (Peprotech, …); assay: competition ELISA; rhVEGF165 coated, competitor biotinylated rhVEGF R2/KDR
Description: (§1) The mixture was added to ELISA binding plates which contained rhVEGF₁₆₅ coating. […] The receptor binding was detected by HRP-conjugated streptavidin (Jackson ImmunoResearch Laboratories, Cat #016-030-084) and visualized by TMB substrate.

[8] = target: T2, His-tagged recombinant human ANG-2 …; assay: competition ELISA; His-tagged rhANG-2 in solution, competitor coated rhTie-2-Fc
[9] = target: T6, Recombinant human VEGF121 (Peprotech, Cat #100-20A) (human, UniProt P15692-9 27-147); assay: ELISA; rhVEGF121 coated at 1 ug/mL, anti-human IgG Fc-HRP detection (RO-101_Sample 1)
T6 construct: Bought protein; also called rhVEGF121; rh VEGF121
T6 sequence (looked up): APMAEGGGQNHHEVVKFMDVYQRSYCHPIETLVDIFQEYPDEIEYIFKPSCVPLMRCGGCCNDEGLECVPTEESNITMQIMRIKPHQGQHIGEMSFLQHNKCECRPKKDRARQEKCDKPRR
Description: Donkey anti-human IgG Fcγ-HRP (Jackson ImmunoResearch Laboratories, Cat #709-035-098) was used for detection and visualized by TMB substrate. OD450 nm readings were measured by Victor 3 (PerkinElmer 1420 Multilabel Counter).

[10] = target: T5, Recombinant human VEGF165 (Peprotech, …); assay: competition ELISA; IC50 ratio against Faricimab for inhibition of VEGF165-VEGF R2/KDR binding
Description: as §1

[11] = target: T4, Recombinant human ANG-2 (R&D Systems, …); assay: ELISA on rhANG-2 by an independent team; first of three runs by an independent team (average 0.0491 nM)

B1: RO-101 VEGF/ANG-2 bispecific surrobody (bispecific antibody, human IgG1, L234A L235A)
heavy 1: not shown
heavy 2: EVQLVESGGGLVKPGGSLRLSCAASGFTFSSYGMHWVRQAPGKGLEWVAGISADSGDKNYADSVKGRFTISRDNAKNSLYLQMNSLRAEDTAVYYCAKEFISWIYTFDYLDYWGQGTLVTVSSASTKGPSVFPLAPSSKSTSGGTAALGCLVKDYFPEPVTVSWNSGALTSGVHTFPAVLQSSGLYSLSSVVTVPSSSLGTQTYICNVNHKPSNTKVDKKVEPKSCDKTHTCPPCPAPEAAGGPSVFLFPPKPKDTLMISRTPEVTCVVVDVSHEDPEVKFNWYVDGVEVHNAKTKPREEQYNSTYRVVSVLTVLHQDWLNGKEYKCKVSNKALPAPIEKTISKAKGQPREPQVCTLPPSRDELTKNQVSLSCAVKGFYPSDIAVEWESNGQPENNYKTTPPVLDSDGSFFLVSKLTVDKSRWQQGNVFSCSVMHEALHNHYTQKSLSLSPG
light: QPVLHQPPAMSSALGTTIRLTCTLRNDHDIGVYSVYWYQQRPGHPPRFLLRYFSQSDKSQGPQVPPRFSGSKDVARNRGYLSISELQPEDEAMYYCAMGARSSVTHVFGSGTQLTVLSQPKATPSVTLFPPSSEELQANKATLVCLMNDFYPGILTVTWKADGTPITQGVEMTTPSKQSNNKYAASSYLSLTPEQWRSRRSYSCQVMHEGSTVEKTVAPAECS
notes: Format SgG1; also called Sample 1
EC50 [1]: 0.0237 nM
EC50 [2]: 0.007 nM
EC50 [3]: 0.0334 nM
average EC50 [4]: 0.0491 nM
EC50 [5]: 0.0122 nM
EC50 [6]: 0.0118 nM and 0.0138 nM
IC50 [7]: 1.99 nM
IC50 [8]: 0.787 nM
EC50 [9]: 0.0146 nM
Fold [10]: 3.25 fold
EC50 [11]: 0.0526 nM
